Test system: Escherichia coli TOP10
Test: shrunken log2 fold change of peptide-encoding DNA abundance (4.5 h post-induction vs induction); higher = less antimicrobial activity (less host growth inhibition)
Settings: time post-induction: 4.5 h; library: site-saturation at positions 5, 18, 19, 20
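Note: peptides expressed intracellularly from a pBAD plasmid library in pooled LB shake-flask culture, induced with 0.3% L-arabinose, DNA abundance read by NGS, three biological replicates, DESeq2 with apeglm shrinkage.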

Sequence: RRIRLRPPRLPRPRPRPSYQPRP
- shrunken log2 fold change: -0.255

Sequence: RRIRYRPPRLPRPRPRPCRCPRP
- shrunken log2 fold change: -0.0894

Sequence: RRIRLRPPRLPRPRPRPHSTPRP
- shrunken log2 fold change: -0.149

Sequence: RRIRVRPPRLPRPRPRPSDPPRP
- shrunken log2 fold change: -0.179

Sequence: RRIRLRPPRLPRPRPRPNFTPRP
- shrunken log2 fold change: -0.501

Sequence: RRIRIRPPRLPRPRPRPRKRPRP
- shrunken log2 fold change: 0.178

Sequence: RRIRQRPPRLPRPRPRPDGPPRP
- shrunken log2 fold change: 0.0029

Sequence: RRIRNRPPRLPRPRPRPCGCPRP
- shrunken log2 fold change: 0.0239

Sequence: RRIRLRPPRLPRPRPRPDYDPRP
- shrunken log2 fold change: -0.496

Sequence: RRIRVRPPRLPRPRPRPPHFPRP
- shrunken log2 fold change: 0.696

Sequence: RRIRLRPPRLPRPRPRPATVPRP
- shrunken log2 fold change: -0.138

Sequence: RRIRFRPPRLPRPRPRPVLDPRP
- shrunken log2 fold change: -0.474

Sequence: RRIRQRPPRLPRPRPRPLWQPRP
- shrunken log2 fold change: 0.296

Sequence: RRIRVRPPRLPRPRPRPHNDPRP
- shrunken log2 fold change: -0.318

Sequence: RRIRKRPPRLPRPRPRPCFVPRP
- shrunken log2 fold change: -0.0847

Sequence: RRIRCRPPRLPRPRPRPQSTPRP
- shrunken log2 fold change: -0.673

Sequence: RRIRRRPPRLPRPRPRPVNIPRP
- shrunken log2 fold change: -0.142

Sequence: RRIRRRPPRLPRPRPRPYKYPRP
- shrunken log2 fold change: -0.415

Sequence: RRIRWRPPRLPRPRPRPMNHPRP
- shrunken log2 fold change: -0.426

Sequence: RRIRHRPPRLPRPRPRPRRSPRP
- shrunken log2 fold change: 0.0555

Sequence: RRIRKRPPRLPRPRPRPVLTPRP
- shrunken log2 fold change: 0.342

Sequence: RRIRTRPPRLPRPRPRPKRLPRP
- shrunken log2 fold change: 0.2

Sequence: RRIRVRPPRLPRPRPRPAKPPRP
- shrunken log2 fold change: 0.296

Sequence: RRIRVRPPRLPRPRPRPTEAPRP
- shrunken log2 fold change: 0.0175

Sequence: RRIRKRPPRLPRPRPRPMVHPRP
- shrunken log2 fold change: -0.079

Sequence: RRIRCRPPRLPRPRPRPLIRPRP
- shrunken log2 fold change: -0.109

Sequence: RRIRERPPRLPRPRPRPTEKPRP
- shrunken log2 fold change: 0.154

Sequence: RRIRHRPPRLPRPRPRPHLFPRP
- shrunken log2 fold change: -0.154

Sequence: RRIRHRPPRLPRPRPRPKCYPRP
- shrunken log2 fold change: -0.0358

Sequence: RRIRWRPPRLPRPRPRPWSMPRP
- shrunken log2 fold change: -0.269

Sequence: RRIRNRPPRLPRPRPRPMYIPRP
- shrunken log2 fold change: -1.03

Sequence: RRIRTRPPRLPRPRPRPHRQPRP
- shrunken log2 fold change: -0.256

Sequence: RRIRTRPPRLPRPRPRPGCHPRP
- shrunken log2 fold change: -0.136

Sequence: RRIRPRPPRLPRPRPRPWLEPRP
- shrunken log2 fold change: -0.0732

Sequence: RRIRARPPRLPRPRPRPITKPRP
- shrunken log2 fold change: -0.0507

Sequence: RRIRNRPPRLPRPRPRPNTKPRP
- shrunken log2 fold change: -0.306

Sequence: RRIRNRPPRLPRPRPRPDVTPRP
- shrunken log2 fold change: 0.216

Sequence: RRIRHRPPRLPRPRPRPLATPRP
- shrunken log2 fold change: -0.0931

Sequence: RRIRIRPPRLPRPRPRPYREPRP
- shrunken log2 fold change: -0.0673

Sequence: RRIRPRPPRLPRPRPRPFFTPRP
- shrunken log2 fold change: -0.117

Sequence: RRIRIRPPRLPRPRPRPNNNPRP
- shrunken log2 fold change: -0.982

Sequence: RRIRFRPPRLPRPRPRPKRIPRP
- shrunken log2 fold change: -0.442

Sequence: RRIRKRPPRLPRPRPRPMSMPRP
- shrunken log2 fold change: 0.0472

Sequence: RRIRMRPPRLPRPRPRPMKHPRP
- shrunken log2 fold change: 0.0546

Sequence: RRIRSRPPRLPRPRPRPDLFPRP
- shrunken log2 fold change: 0.256

Sequence: RRIRKRPPRLPRPRPRPMGVPRP
- shrunken log2 fold change: 0.196

Sequence: RRIRNRPPRLPRPRPRPDQNPRP
- shrunken log2 fold change: -0.017

Sequence: RRIRSRPPRLPRPRPRPMIRPRP
- shrunken log2 fold change: 0.0902

Sequence: RRIRDRPPRLPRPRPRPGCAPRP
- shrunken log2 fold change: 0.968

Sequence: RRIRYRPPRLPRPRPRPSIDPRP
- shrunken log2 fold change: -0.519

Sequence: RRIRHRPPRLPRPRPRPGYLPRP
- shrunken log2 fold change: -0.243

Sequence: RRIRGRPPRLPRPRPRPMHHPRP
- shrunken log2 fold change: 0.533

Sequence: RRIRERPPRLPRPRPRPTLRPRP
- shrunken log2 fold change: 0.383

Sequence: RRIRHRPPRLPRPRPRPNFAPRP
- shrunken log2 fold change: 0.303

Sequence: RRIRVRPPRLPRPRPRPSTPPRP
- shrunken log2 fold change: -0.0614

Sequence: RRIRGRPPRLPRPRPRPHNTPRP
- shrunken log2 fold change: -0.277

Sequence: RRIRNRPPRLPRPRPRPVYCPRP
- shrunken log2 fold change: -0.688

Sequence: RRIRARPPRLPRPRPRPYVGPRP
- shrunken log2 fold change: 0.0297

Sequence: RRIRDRPPRLPRPRPRPPLVPRP
- shrunken log2 fold change: 0.194

Sequence: RRIRFRPPRLPRPRPRPTESPRP
- shrunken log2 fold change: -0.154

Sequence: RRIRWRPPRLPRPRPRPLNKPRP
- shrunken log2 fold change: -0.397

Sequence: RRIRIRPPRLPRPRPRPDMCPRP
- shrunken log2 fold change: 0.00741

Sequence: RRIRYRPPRLPRPRPRPQRCPRP
- shrunken log2 fold change: -0.0766

Sequence: RRIRKRPPRLPRPRPRPAQMPRP
- shrunken log2 fold change: 0.139

Sequence: RRIRRRPPRLPRPRPRPNNYPRP
- shrunken log2 fold change: -0.378

Sequence: RRIRYRPPRLPRPRPRPVMIPRP
- shrunken log2 fold change: -0.596

Sequence: RRIRYRPPRLPRPRPRPWVHPRP
- shrunken log2 fold change: -0.701

Sequence: RRIRVRPPRLPRPRPRPKSQPRP
- shrunken log2 fold change: 0.309

Sequence: RRIRARPPRLPRPRPRPEYCPRP
- shrunken log2 fold change: 0.409

Sequence: RRIRNRPPRLPRPRPRPFEYPRP
- shrunken log2 fold change: -0.266

Sequence: RRIRRRPPRLPRPRPRPSDFPRP
- shrunken log2 fold change: -0.116

Sequence: RRIRRRPPRLPRPRPRPGPMPRP
- shrunken log2 fold change: 0.353

Sequence: RRIRKRPPRLPRPRPRPEWSPRP
- shrunken log2 fold change: 0.0885

Sequence: RRIRTRPPRLPRPRPRPTPYPRP
- shrunken log2 fold change: -0.298

Sequence: RRIRHRPPRLPRPRPRPWNKPRP
- shrunken log2 fold change: -0.111

Sequence: RRIRCRPPRLPRPRPRPTEIPRP
- shrunken log2 fold change: -0.146

Sequence: RRIRGRPPRLPRPRPRPNVNPRP
- shrunken log2 fold change: 0.371

Sequence: RRIRARPPRLPRPRPRPYRFPRP
- shrunken log2 fold change: 0.0859

Sequence: RRIRFRPPRLPRPRPRPLPIPRP
- shrunken log2 fold change: 0.165

Sequence: RRIRLRPPRLPRPRPRPREEPRP
- shrunken log2 fold change: -0.0235

Sequence: RRIRNRPPRLPRPRPRPHDWPRP
- shrunken log2 fold change: 0.263

Sequence: RRIRPRPPRLPRPRPRPAECPRP
- shrunken log2 fold change: -0.223

Sequence: RRIRQRPPRLPRPRPRPVWPPRP
- shrunken log2 fold change: 0.303

Sequence: RRIRIRPPRLPRPRPRPVEGPRP
- shrunken log2 fold change: -0.308

Sequence: RRIRARPPRLPRPRPRPQDDPRP
- shrunken log2 fold change: 0.274

Sequence: RRIRYRPPRLPRPRPRPHRFPRP
- shrunken log2 fold change: 0.0207

Sequence: RRIRCRPPRLPRPRPRPAAQPRP
- shrunken log2 fold change: 0.394

Sequence: RRIRLRPPRLPRPRPRPVWMPRP
- shrunken log2 fold change: 0.372

Sequence: RRIRYRPPRLPRPRPRPPRCPRP
- shrunken log2 fold change: -0.0545

Sequence: RRIRMRPPRLPRPRPRPYSKPRP
- shrunken log2 fold change: -0.145

Sequence: RRIRYRPPRLPRPRPRPFNPPRP
- shrunken log2 fold change: -0.0161
